Molecular target: HLA-A*02:01 (Homo sapiens, UniProt P04439, D140Y/D185E/D98H/E176V/E277Q/G131W/G231S/I119V/I121R/I166T/I218V/L300P/L318F/N151K/N90K/P208A/P217A/Q86G/Q94H/R138H/R169H/T345S)
Test: MHC binding assay (UV-ligand exchange, beta2m ELISA, peptide exchange yield)
Settings: binding of HLA-class I restricted peptides to HLA-A*02:01, ranged by peptide exchange yield (UV-ligand exchange, β2m ELISA)
From the text: Candidate peptides for T cell based therapies according to the present invention were further tested for their MHC binding capacity (affinity). The individual peptide-MHC complexes were produced by UV-ligand exchange, where a UV-sensitive peptide is cleaved upon UV-irradiation, and exchanged with the peptide of interest as analyzed. Only peptide candidates that can effectively bind and stabilize the peptide-receptive MHC molecules prevent dissociation of the MHC complexes. To determine the yield of the exchange reaction, an ELISA was performed based on the detection of the light chain (β2m) of stabilized MHC complexes. The assay was performed as generally described in Rodenko et al. (Rodenko et al., 2006).
96 well MAXISorp plates (NUNC) were coated over night with 2ug/ml streptavidin in PBS at room temperature, washed 4× and blocked for 1 h at 37° C. in 2% BSA containing blocking buffer. […] Peptide-MHC monomers of the UV-exchange reaction were diluted 100 fold in blocking buffer. Samples were incubated for 1 h at 37° C., washed four times, incubated with 2ug/ml HRP conjugated anti-82m for 1 h at 37° C., washed again and detected with TMB solution that is stopped with […]. Absorption was measured at 450 nm. Candidate peptides that show a high exchange yield (preferably higher than 50%, most preferred higher than 75%) are generally preferred for a generation and production of antibodies or fragments thereof, and/or T cell receptors or fragments thereof, as they show sufficient avidity to the MHC molecules and prevent dissociation of the MHC complexes.

| Substance | Peptide exchange |
| --- | --- |
| 87 (ALPEAPAPLLPHIT; listed as Homo sapiens) [compound 87] | ″++″ (≥20% = ++) |
| 88 (FLLVGDLMAV; listed as Homo sapiens) [compound 88] | ″+++″ (≥50% = +++) |
| 89 (YILPTETIYV; listed as Homo sapiens) [compound 89] | ″++++″ (≥75% = ++++) |
| 90 (TLLQIIETV; listed as Homo sapiens) [compound 90] | ″+++″ (≥50% = +++) |
| 91 (IMQDFPAEIFL; listed as Homo sapiens) [compound 91] | ″++++″ (≥75% = ++++) |
| 92 (YLIPFTGIVGL; listed as Homo sapiens) [compound 92] | ″++″ (≥20% = ++) |
| 93 (LLQAIKLYL; listed as Homo sapiens) [compound 93] | ″++″ (≥20% = ++) |
| 94 (YLIDIKTIAI; listed as Homo sapiens) [compound 94] | ″++″ (≥20% = ++) |
| 95 (SVIPQIQKV; listed as Homo sapiens) [compound 95] | ″+++″ (≥50% = +++) |
| 96 (YIFTDNPAAV; listed as Homo sapiens) [compound 96] | ″+++″ (≥50% = +++) |
| 97 (SLINGSFLV; listed as Homo sapiens) [compound 97] | ″+++″ (≥50% = +++) |
| 98 (LIIDQADIYL; listed as Homo sapiens) [compound 98] | ″+++″ (≥50% = +++) |
| 99 (ALVSKGLATV; listed as Homo sapiens) [compound 99] | ″++″ (≥20% = ++) |
| 100 (YLLSTNAQL; listed as Homo sapiens) [compound 100] | ″++++″ (≥75% = ++++) |
| 101 (ILVGGGALATV; listed as Homo sapiens) [compound 101] | ″+++″ (≥50% = +++) |
| 102 (YLFESEGLVL; listed as Homo sapiens) [compound 102] | ″+++″ (≥50% = +++) |
| 103 (TLAEEVVAL; listed as Homo sapiens) [compound 103] | ″+++″ (≥50% = +++) |
| 104 (STMEQNFLL; listed as Homo sapiens) [compound 104] | ″++++″ (≥75% = ++++) |
| 106 (LLYDAVHIVSV; listed as Homo sapiens) [compound 106] | ″+++″ (≥50% = +++) |
| 107 (FLQPVDDTQHL; listed as Homo sapiens) [compound 107] | ″+++″ (≥50% = +++) |
| 108 (ALFPGVALLLA; listed as Homo sapiens) [compound 108] | ″++++″ (≥75% = ++++) |
| 109 (IILSILEQA; listed as Homo sapiens) [compound 109] | ″++++″ (≥75% = ++++) |
| 110 (FLSQVDFEL; listed as Homo sapiens) [compound 110] | ″+++″ (≥50% = +++) |
| 111 (YVWGFYPAEV; listed as Homo sapiens) [compound 111] | ″+++″ (≥50% = +++) |

| Substance | Peptide exchange |
| --- | --- |
| 114 (SLVGEPILQNV; listed as Homo sapiens) [compound 114] | ″++″ (≥20% = ++) |
| 115 (AIAGAGILYGV; listed as Homo sapiens) [compound 115] | ″++″ (≥20% = ++) |
| 116 (YHIDEEVGF; listed as Homo sapiens) [compound 116] | ″+″ (≥10% = +) |
| 117 (ILPDGEDFLAV; listed as Homo sapiens) [compound 117] | ″+++″ (≥50% = +++) |
| 119 (FLYIGDIVSL; listed as Homo sapiens) [compound 119] | ″++++″ (≥75% = ++++) |
| 120 (ALLGIPLTLV; listed as Homo sapiens) [compound 120] | ″+++″ (≥50% = +++) |
| 121 (GVVDPRAISVL; listed as Homo sapiens) [compound 121] | ″++″ (≥20% = ++) |
| 122 (FLLAEDDIYL; listed as Homo sapiens) [compound 122] | ″+++″ (≥50% = +++) |
| 123 (NLWDLTDASVV; listed as Homo sapiens) [compound 123] | ″+++″ (≥50% = +++) |
| 124 (ALYETELADA; listed as Homo sapiens) [compound 124] | ″++″ (≥20% = ++) |
| 125 (VQIHQVAQV; listed as Homo sapiens) [compound 125] | ″+++″ (≥50% = +++) |
| 126 (VLAYFLPEA; listed as Homo sapiens) [compound 126] | ″++++″ (≥75% = ++++) |
| 127 (KIGDEPPKV; listed as Homo sapiens) [compound 127] | ″++″ (≥20% = ++) |
| 128 (YLFDDPLSAV; listed as Homo sapiens) [compound 128] | ″++″ (≥20% = ++) |
| 129 (GLLDGGVDILL; listed as Homo sapiens) [compound 129] | ″+++″ (≥50% = +++) |
| 130 (FLWNGEDSALL; listed as Homo sapiens) [compound 130] | ″+++″ (≥50% = +++) |
| 131 (FVPPVTVFPSL; listed as Homo sapiens) [compound 131] | ″++″ (≥20% = ++) |
| 132 (LLVEQPPLAGV; listed as Homo sapiens) [compound 132] | ″+++″ (≥50% = +++) |
| 133 (KVLSNIHTV; listed as Homo sapiens) [compound 133] | ″++″ (≥20% = ++) |
| 134 (YLQELIFSV; listed as Homo sapiens) [compound 134] | ″+++″ (≥50% = +++) |
| 135 (ALSEVDFQL; listed as Homo sapiens) [compound 135] | ″+++″ (≥50% = +++) |
| 136 (YLADPSNLFVV; listed as Homo sapiens) [compound 136] | ″+++″ (≥50% = +++) |
| 137 (TLVLTLPTV; listed as Homo sapiens) [compound 137] | ″++++″ (≥75% = ++++) |
| 138 (YQYPRAILSV; listed as Homo sapiens) [compound 138] | ″+++″ (≥50% = +++) |

| Substance | Peptide exchange |
| --- | --- |
| 139 (SVMEVNSGIYRV; listed as Homo sapiens) [compound 139] | ″+++″ (≥50% = +++) |
| 140 (YMDAPKAAL; listed as Homo sapiens) [compound 140] | ″++″ (≥20% = ++) |
| 142 (FLFATPVFI; listed as Homo sapiens) [compound 142] | ″+++″ (≥50% = +++) |
| 144 (YIMEPSIFNTL; listed as Homo sapiens) [compound 144] | ″+++″ (≥50% = +++) |
| 145 (FLATSGTLAGI; listed as Homo sapiens) [compound 145] | ″++″ (≥20% = ++) |
| 146 (SLATAGDGLIEL; listed as Homo sapiens) [compound 146] | ″++″ (≥20% = ++) |
| 147 (SLLEAVSFL; listed as Homo sapiens) [compound 147] | ″+++″ (≥50% = +++) |
| 148 (ALNPEIVSV; listed as Homo sapiens) [compound 148] | ″++″ (≥20% = ++) |
| 149 (NLLELFVQL; listed as Homo sapiens) [compound 149] | ″+++″ (≥50% = +++) |
| 151 (KILQQLVTL; listed as Homo sapiens) [compound 151] | ″+++″ (≥50% = +++) |
| 152 (ILFEDIFDV; listed as Homo sapiens) [compound 152] | ″+++″ (≥50% = +++) |
| 153 (FLIANVLYL; listed as Homo sapiens) [compound 153] | ″+″ (≥10% = +) |
| 154 (ALDDGTPAL; listed as Homo sapiens) [compound 154] | ″++″ (≥20% = ++) |
| 155 (RVANLHFPSV; listed as Homo sapiens) [compound 155] | ″+++″ (≥50% = +++) |
| 157 (SLNDEVPEV; listed as Homo sapiens) [compound 157] | ″++″ (≥20% = ++) |
| 158 (KLFDVDEDGYI; listed as Homo sapiens) [compound 158] | ″+++″ (≥50% = +++) |
| 159 (GLVGNPLPSV; listed as Homo sapiens) [compound 159] | ″++++″ (≥75% = ++++) |
| 160 (FLFDEEIEQI; listed as Homo sapiens) [compound 160] | ″+++″ (≥50% = +++) |
| 161 (ALLEGVNTV; listed as Homo sapiens) [compound 161] | ″+++″ (≥50% = +++) |
| 162 (YQQAQVPSV; listed as Homo sapiens) [compound 162] | ″+++″ (≥50% = +++) |
| 163 (ALDEMGDLLQL; listed as Homo sapiens) [compound 163] | ″+++″ (≥50% = +++) |
| 164 (ALLPQPKNLTV; listed as Homo sapiens) [compound 164] | ″+++″ (≥50% = +++) |
| 165 (SLLDEIRAV; listed as Homo sapiens) [compound 165] | ″+++″ (≥50% = +++) |
